Measurements published in publication PMC11246403.

Assays:
KNP-301 = KNP-301 (UniProt Q9Y279); experiment: SPR
Human VEGF165 (human) = experiment: ELISA
rabbit VEGF (rabbit) = experiment: ELISA
rat VEGF (rat) = rat VEGF (rat) (UniProt P16612); experiment: ELISA
[1] = biological target: cynomolgus VEGF (cynomolgus monkey); experiment: ELISA
rabbit C3b (rabbit) = rabbit C3b (rabbit) (UniProt P12247); experiment: ELISA
rat C3b (rat) = rat C3b (rat) (UniProt P01026); experiment: ELISA
[2] = biological target: cynomolgus C3b (cynomolgus monkey); experiment: ELISA
C3 = C3 (UniProt P01024); experiment: ELISA
human C3b (human) = human C3b (human) (UniProt P01024); experiment: ELISA

Chain of UniProt P12247 (P12247 whole entry, chain 1 of 2): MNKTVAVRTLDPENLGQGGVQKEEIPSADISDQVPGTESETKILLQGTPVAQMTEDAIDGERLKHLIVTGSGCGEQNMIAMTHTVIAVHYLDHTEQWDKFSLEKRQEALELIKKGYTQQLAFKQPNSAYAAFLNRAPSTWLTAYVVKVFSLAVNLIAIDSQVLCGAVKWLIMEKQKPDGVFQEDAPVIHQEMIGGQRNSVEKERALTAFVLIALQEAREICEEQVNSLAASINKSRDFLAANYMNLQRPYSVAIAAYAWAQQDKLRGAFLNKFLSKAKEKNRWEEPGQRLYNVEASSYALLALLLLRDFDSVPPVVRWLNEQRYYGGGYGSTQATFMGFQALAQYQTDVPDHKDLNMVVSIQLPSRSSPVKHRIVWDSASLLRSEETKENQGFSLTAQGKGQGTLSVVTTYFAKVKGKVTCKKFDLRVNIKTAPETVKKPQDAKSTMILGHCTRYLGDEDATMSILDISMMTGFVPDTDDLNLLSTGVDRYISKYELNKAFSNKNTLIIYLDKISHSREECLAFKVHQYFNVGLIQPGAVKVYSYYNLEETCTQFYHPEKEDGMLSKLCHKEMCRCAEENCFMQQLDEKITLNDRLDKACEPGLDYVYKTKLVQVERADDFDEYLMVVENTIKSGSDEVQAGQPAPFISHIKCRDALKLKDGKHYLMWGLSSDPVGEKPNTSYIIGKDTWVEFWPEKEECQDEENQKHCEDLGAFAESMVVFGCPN
Chain of UniProt P12247 (P12247 whole entry, chain 2 of 2): as the sequence (P12247 whole entry, chain 1 of 2) above
Chain of UniProt P01026 (P01026 25-1663): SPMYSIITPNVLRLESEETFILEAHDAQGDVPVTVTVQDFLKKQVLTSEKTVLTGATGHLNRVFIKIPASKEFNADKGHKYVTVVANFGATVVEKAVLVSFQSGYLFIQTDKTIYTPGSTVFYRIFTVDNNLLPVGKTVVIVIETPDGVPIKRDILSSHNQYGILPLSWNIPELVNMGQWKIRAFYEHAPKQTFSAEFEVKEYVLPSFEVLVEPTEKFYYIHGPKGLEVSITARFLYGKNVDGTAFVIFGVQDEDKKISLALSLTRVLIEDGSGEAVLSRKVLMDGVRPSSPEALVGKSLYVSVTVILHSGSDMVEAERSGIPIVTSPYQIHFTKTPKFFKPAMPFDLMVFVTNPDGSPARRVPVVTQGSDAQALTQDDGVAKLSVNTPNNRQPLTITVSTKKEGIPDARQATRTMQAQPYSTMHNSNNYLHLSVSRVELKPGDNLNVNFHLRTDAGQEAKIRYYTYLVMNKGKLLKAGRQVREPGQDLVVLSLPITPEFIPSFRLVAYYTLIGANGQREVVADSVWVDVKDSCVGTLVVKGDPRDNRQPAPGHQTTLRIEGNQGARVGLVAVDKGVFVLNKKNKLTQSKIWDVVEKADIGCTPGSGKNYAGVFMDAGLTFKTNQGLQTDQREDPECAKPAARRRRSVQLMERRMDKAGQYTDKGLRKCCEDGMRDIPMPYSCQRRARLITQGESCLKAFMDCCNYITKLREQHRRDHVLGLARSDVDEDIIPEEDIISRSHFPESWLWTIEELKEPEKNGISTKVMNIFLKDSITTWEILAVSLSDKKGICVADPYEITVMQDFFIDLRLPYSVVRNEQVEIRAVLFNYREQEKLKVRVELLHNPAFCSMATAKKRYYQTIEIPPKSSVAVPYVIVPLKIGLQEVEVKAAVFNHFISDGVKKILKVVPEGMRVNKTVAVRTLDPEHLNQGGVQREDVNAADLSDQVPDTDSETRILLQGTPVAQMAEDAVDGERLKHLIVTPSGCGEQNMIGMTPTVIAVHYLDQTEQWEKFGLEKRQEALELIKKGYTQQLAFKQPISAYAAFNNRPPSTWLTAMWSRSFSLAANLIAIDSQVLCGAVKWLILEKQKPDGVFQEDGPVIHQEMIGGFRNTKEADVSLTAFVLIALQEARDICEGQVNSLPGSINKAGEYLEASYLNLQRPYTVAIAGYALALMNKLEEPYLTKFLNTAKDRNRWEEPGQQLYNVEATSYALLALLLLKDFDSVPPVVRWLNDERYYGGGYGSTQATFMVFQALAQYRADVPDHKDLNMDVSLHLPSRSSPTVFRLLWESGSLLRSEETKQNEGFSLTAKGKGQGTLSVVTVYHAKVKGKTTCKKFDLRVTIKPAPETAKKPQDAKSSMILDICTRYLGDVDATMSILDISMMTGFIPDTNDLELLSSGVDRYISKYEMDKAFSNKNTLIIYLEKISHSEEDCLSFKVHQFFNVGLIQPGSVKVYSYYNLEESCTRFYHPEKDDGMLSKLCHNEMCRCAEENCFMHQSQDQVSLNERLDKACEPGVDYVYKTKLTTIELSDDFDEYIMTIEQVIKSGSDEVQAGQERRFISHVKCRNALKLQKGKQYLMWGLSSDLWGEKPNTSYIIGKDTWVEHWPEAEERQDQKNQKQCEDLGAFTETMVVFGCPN

Substance	Kd (KNP-301) [nM]	relative binding affinity (%) (Human VEGF165 (human))	relative binding affinity (%) (rabbit VEGF (rabbit))	relative binding affinity (%) (rat VEGF (rat))	relative binding affinity (%) [1] [%]	relative binding affinity (%) (rabbit C3b (rabbit))	relative binding affinity (%) (rat C3b (rat))	relative binding affinity (%) [2] [%]	fold lower binding affinity than to C3b (ratio of IC50 values) (C3) [fold]	relative binding affinity (%) (human C3b (human))
Human VEGF165 (ligand)	0.0628	–	–	–	–	–	–	–	–	–
human C3b (from UniProt P01024 23-667; P01024 749-1663) (natural protein)	4.34	–	–	–	–	–	–	–	–	–
KNP-301 (from UniProt Q9Y279 20-283) (Fc fusion)	–	100	165	80.8	75.8	1.2	6.3	78.3	10	100
